Experimental data: article PMC6056499, “A systematic dissection of sequence elements determining β-Klotho and FGF interaction and signaling” (Scientific Reports, 2018)
Like-named read-outs stand apart in the source and are kept apart here. Blank lines part the entries; values can stand above or below the molecule they belong to.

Key:
β-Klotho/FGFR complex = assay: Elk1-luciferase reporter assay in HEK293T reporter cells transiently transfected with full-length WT β-Klotho; assay type: cell-based, human; settings: 6 h treatment, mean ± SD of three independent experiments, read-out: EC50, stimulation of Elk1-luciferase reporter activity (KLB WT)
Procedure: (§1) To measure the signaling activity of β-Klotho mutants, ELK luciferase assay was performed in HEK293T cells that were stably transfected with reporter constructs containing 5 × UAS upstream of luciferase and Gal4 DNA-binding domain fused to ELK1. Briefly, HEK293T reporter cells were maintained in DMEM supplemented with 10% (v/v) FBS (Gibco) and 2 mM GlutaMax (Gibco) in a 37 °C incubator with 5% CO2. Cells were plated on 96-well plates in growth medium and incubated overnight. The next day, cells were transfected with expression vectors encoding full-length β-Klotho WT or mutants using the Lipofectamine 2000 transfection reagent (Invitrogen) according to the manufacturer’s protocol. Cells were serum-starved in DMEM supplemented with 5% (v/v) FBS (Gibco) and 2 mM GlutaMax (Gibco) overnight the day after transfection and treated with FGF21 for 6 hours at 37 °C with 5% CO2, after which the cells were lysed in Bright-Glo luciferase reagent (Promega). Luciferase activity was measured in relative luminescence units on the EnVision Multilabel Plate Reader (PerkinElmer) according to the manufacturer’s instructions. All assays were performed in duplicates. EC50 values were determined from a three-parameter logistic regression model with the least squares fit using GraphPad Prism version 7.

[1] = system: FGFR (expressed endogenously in HEK293T reporter cells); assay: Elk1-luciferase reporter assay in HEK293T reporter cells without β-Klotho (no KLB); assay type: cell-based, human; settings: d.n.c = did not converge
Procedure: as §1, with “The next day, cells were transfected with expression vectors encoding full-length β-Klotho WT or mutants using the Lipofectamine 2000 transfection reagent (Invitrogen) according to the manufacturer’s protocol.” left out

β-Klotho/FGFR1c = assay: Elk1-luciferase reporter assay in CHO reporter cells stably expressing human β-Klotho and FGFR1c; assay type: cell-based; settings: 4 h treatment, three independent experiments in duplicates, read-out: EC50, stimulation of Elk1-luciferase reporter activity
Procedure: To measure the signaling activity of Fc-FGF21 mutants, ELK luciferase assay was performed in CHO cells stably transfected with human FGFR1c, β-Klotho and the two reporter constructs described above. CHO reporter cells were maintained in DMEM supplemented with 10% (v/v) dialyzed FBS (GE Healthcare Life Sciences), 6 µg/mL puromycin (Sigma) and 400 μg/mL hygromycin (Invitrogen) in a 37 °C incubator with 5% CO2. Cells were plated on 96-well plates in growth medium and incubated overnight. The next day, cells were serum-starved in Ham’s F-12K Nutrient Mixture (Corning) supplemented with 1% (w/v) BSA (Sigma) overnight. Following starvation, Fc-FGF21 protein was added to cells in starvation medium. Plates were incubated for 4 hours at 37 °C with 5% CO2, after which the cells were lysed in Steady-Glo luciferase reagent (Promega). Luciferase activity was measured and analyzed as described above.

- EC50 (β-Klotho/FGFR complex; Fig 3A): 3.5 ± 1.1 nM
- EC50 (β-Klotho/FGFR complex; Fig 3D): 2.87 ± 1.15 nM
- EC50 (β-Klotho/FGFR1c): 0.57 ± 0.09 nM
B1: FGF21: mature human FGF21 protein, endocrine fibroblast growth factor (protein)
chain: HPIPDSSPLLQFGGQVRQRYLYTDDAQQTEAHLEIREDGTVGGAADQSPESLLQLKALKPGVIQILGVKTSRFLCQRPDGALYGSLHFDPEACSFRELLLEDGYNVYQSEAHGLPLHLPGNKSPHRDPAPRGPARFLPLPGLPPALPEPPGILAPQPPDVGSSDPLSMVGPSQGRSPSYAS
modifications: biotin (EZ-Link Sulfo-NHS-LC-Biotin) in the solid-phase binding assay; biotinylated as the labelled ligand in AlphaScreen
notes: mature human FGF21 protein, endocrine fibroblast growth factor
- EC50, stimulation of Elk1-luciferase reporter activity (no KLB) ([1]; Fig 3A, mean ± SD of three independent experiments): d.n.c
- EC50, stimulation of Elk1-luciferase reporter activity (no KLB) ([1]; Fig 3D): d.n.c

- EC50 (β-Klotho/FGFR1c): 1.85 ± 0.44 nM
B2: Fc-FGF21: mature human FGF21 polypeptide fused with the human Fc fragment at the N-terminus (protein)
chain: B1 chain
modifications: left off: Fc (human), N-terminal, kept
notes: mature human FGF21 polypeptide fused with the human Fc fragment at the N-terminus
